Data taken from FireProtDB (doi:10.1006/jmbi.1997.1365).
Where “and” joins values, the source holds several entries; their conditions need not be identical. Equal values may be shown once.

B1: Lysozyme C, P61626 (parent)
chain: MKALIVLGLVLLSVTVQGKVFERCELARTLKRLGMDGYRGISLANWMCLAKWESGYNTRATNYNAGDRSTDYGIFQINSRYWCNDGKTPGAVNACHLSCSALLQDNIADAVACAKRVVRDPQGIRAWVAWRNRCQNRDVRQYVQGCGV

Variants of: B1
Settings: Homo sapiens; pH 2.51; Thermal; DSC; glycine 0.05 M; reversible: yes; structure 1LZ1; whole UniProt chain shown
In the case of MKALIVLGLVLLSVTVQGKVFERCELARTLKRLGMDGYRGISLANWMCLAKWESGYNTRATNYNAGDRSTDYGIFQINSRYWCNDGKTPGAVNACHLSCSALLQDNIADAVACAKRVVRDPQGARAWVAWRNRCQNRDVRQYVQGCGV [I124A], the Tm is reported as 57.7 °C, the “heat capacity change of unfolding” value is reported as 1.15 kcal/mol/K and the “unfolding enthalpy (calorimetric)” value is reported as 96.4 kcal/mol. For the same variant, the “unfolding enthalpy (van 't Hoff)” value was 102 kcal/mol.

Same assay, conditions: Homo sapiens; pH 2.7; 64.9 °C; Thermal; DSC; glycine 0.05 M; reversible: yes; structure 1LZ1; whole UniProt chain shown
With MKALIVLGLVLLSVTVQGKVFERCELARTLKRLGMDGYRGISLANWMCLAKWESGYNTRATNYNAGDRSTDYGIFQINSRYWCNDGKTPGAVNACHLSCSALLQDNIADAVACAKRVVRDPQGARAWVAWRNRCQNRDVRQYVQGCGV [I124A] the “ddG of mutation (higher = less stable)” value was 0.93 kcal/mol, the “heat capacity change of unfolding” value was 1.34 kcal/mol/K and the “unfolding enthalpy (calorimetric)” value was 106 kcal/mol. For the same variant, the “unfolding enthalpy (van 't Hoff)” value was 112 kcal/mol.
In the case of MKALIVLGLVLLSVTVQGKVFERCELARTLKRLGMDGYRGISLANWMCLAKWESGYNTRATNYNAGDRSTDYGIFQANSRYWCNDGKTPGAVNACHLSCSALLQDNIADAVACAKRVVRDPQGIRAWVAWRNRCQNRDVRQYVQGCGV [I77A], the “ddG of mutation (higher = less stable)” value is reported as 1.72 kcal/mol, the “heat capacity change of unfolding” value is reported as 1.46 kcal/mol/K and the “unfolding enthalpy (calorimetric)” value is reported as 115 kcal/mol. For the same variant, the “unfolding enthalpy (van 't Hoff)” value was 121 kcal/mol.
In the case of MKALIVLGLVLLSVTVQGKVFERCELARTLKRLGMDGYRGISLANWMCLAKWESGYNTRATNYNAGDRSTDYGIFQGNSRYWCNDGKTPGAVNACHLSCSALLQDNIADAVACAKRVVRDPQGIRAWVAWRNRCQNRDVRQYVQGCGV [I77G], the “ddG of mutation (higher = less stable)” value is reported as 3.83 kcal/mol, the “heat capacity change of unfolding” value is reported as 1.24 kcal/mol/K and the “unfolding enthalpy (calorimetric)” value is reported as 106 kcal/mol. The “unfolding enthalpy (van 't Hoff)” value was 110 kcal/mol.

Same assay, conditions: Homo sapiens; pH 2.7; Thermal; DSC; glycine 0.05 M; reversible: yes; structure 1LZ1; whole UniProt chain shown
For MKALIVLGLVLLSVTVQGKVFERCELARTLKRLGMDGYRGISLANWMCLAKWESGYNTRATNYNAGDRSTDYGIFQINSRYWCNDGKTPGAVNACHLSCSALLQDNIADAVACAKRVVRDPQGARAWVAWRNRCQNRDVRQYVQGCGV [I124A], the Tm was 61.9 °C, the “change of melting temperature, mutant - wild type (higher = more stable)” value (from here on “change of melting temperature, mutant”) was -3 °C and the “heat capacity change of unfolding” value was 1.34 kcal/mol/K.
For MKALIVLGLVLLSVTVQGKVFERCELARTLKRLGMDGYRGISLANWMCLAKWESGYNTRATNYNAGDRSTDYGIFQANSRYWCNDGKTPGAVNACHLSCSALLQDNIADAVACAKRVVRDPQGIRAWVAWRNRCQNRDVRQYVQGCGV [I77A], the Tm was 59.7 °C, the “change of melting temperature, mutant” value was -5.2 °C and the “heat capacity change of unfolding” value was 1.46 kcal/mol/K.
With MKALIVLGLVLLSVTVQGKVFERCELARTLKRLGMDGYRGISLANWMCLAKWESGYNTRATNYNAGDRSTDYGIFQGNSRYWCNDGKTPGAVNACHLSCSALLQDNIADAVACAKRVVRDPQGIRAWVAWRNRCQNRDVRQYVQGCGV [I77G] the Tm was 52 °C and 52.2 °C, the “change of melting temperature, mutant” value was -12.7 °C and the “heat capacity change of unfolding” value was 0.62 kcal/mol/K and 1.24 kcal/mol/K. For the same variant, the “unfolding enthalpy (calorimetric)” value was 90.9 kcal/mol and the “unfolding enthalpy (van 't Hoff)” value was 92.8 kcal/mol.

Same assay, conditions: Homo sapiens; pH 2.8; Thermal; DSC; glycine 0.05 M; reversible: yes; structure 1LZ1; whole UniProt chain shown
In the case of MKALIVLGLVLLSVTVQGKVFERCELARTLKRLGMDGYRGISLANWMCLAKWESGYNTRATNYNAGDRSTDYGIFQINSRYWCNDGKTPGAVNACHLSCSALLQDNIADAVACAKRVVRDPQGARAWVAWRNRCQNRDVRQYVQGCGV [I124A], the Tm is reported as 64.1 °C, the “heat capacity change of unfolding” value is reported as 0.98 kcal/mol/K and the “unfolding enthalpy (calorimetric)” value is reported as 104 kcal/mol. The “unfolding enthalpy (van 't Hoff)” value was 111 kcal/mol.
For MKALIVLGLVLLSVTVQGKVFERCELARTLKRLGMDGYRGISLANWMCLAKWESGYNTRATNYNAGDRSTDYGIFQANSRYWCNDGKTPGAVNACHLSCSALLQDNIADAVACAKRVVRDPQGIRAWVAWRNRCQNRDVRQYVQGCGV [I77A], the Tm was 61.5 °C, the “heat capacity change of unfolding” value was 1.2 kcal/mol/K and the “unfolding enthalpy (calorimetric)” value was 110 kcal/mol. The “unfolding enthalpy (van 't Hoff)” value was 115 kcal/mol.

Same assay, conditions: Homo sapiens; pH 2.96; Thermal; DSC; glycine 0.05 M; reversible: yes; structure 1LZ1; whole UniProt chain shown
With MKALIVLGLVLLSVTVQGKVFERCELARTLKRLGMDGYRGISLANWMCLAKWESGYNTRATNYNAGDRSTDYGIFQINSRYWCNDGKTPGAVNACHLSCSALLQDNIADAVACAKRVVRDPQGARAWVAWRNRCQNRDVRQYVQGCGV [I124A] the Tm was 67.4 °C, the “heat capacity change of unfolding” value was 1.17 kcal/mol/K and the “unfolding enthalpy (calorimetric)” value was 109 kcal/mol. The “unfolding enthalpy (van 't Hoff)” value was 114 kcal/mol.

Same assay, conditions: Homo sapiens; pH 3.1; Thermal; DSC; glycine 0.05 M; reversible: yes; structure 1LZ1; whole UniProt chain shown
With MKALIVLGLVLLSVTVQGKVFERCELARTLKRLGMDGYRGISLANWMCLAKWESGYNTRATNYNAGDRSTDYGIFQINSRYWCNDGKTPGAVNACHLSCSALLQDNIADAVACAKRVVRDPQGARAWVAWRNRCQNRDVRQYVQGCGV [I124A] the Tm was 69.7 °C, the “heat capacity change of unfolding” value was 1.58 kcal/mol/K and the “unfolding enthalpy (calorimetric)” value was 112 kcal/mol. The “unfolding enthalpy (van 't Hoff)” value was 119 kcal/mol.

Same assay, conditions: Homo sapiens; pH 2.49; Thermal; DSC; glycine 0.05 M; reversible: yes; structure 1LZ1; whole UniProt chain shown
In the case of MKALIVLGLVLLSVTVQGKVFERCELARTLKRLGMDGYRGISLANWMCLAKWESGYNTRATNYNAGDRSTDYGIFQANSRYWCNDGKTPGAVNACHLSCSALLQDNIADAVACAKRVVRDPQGIRAWVAWRNRCQNRDVRQYVQGCGV [I77A], the Tm is reported as 55.9 °C, the “heat capacity change of unfolding” value is reported as 0.84 kcal/mol/K and the “unfolding enthalpy (calorimetric)” value is reported as 101 kcal/mol. The “unfolding enthalpy (van 't Hoff)” value was 108 kcal/mol.
For MKALIVLGLVLLSVTVQGKVFERCELARTLKRLGMDGYRGISLANWMCLAKWESGYNTRATNYNAGDRSTDYGIFQGNSRYWCNDGKTPGAVNACHLSCSALLQDNIADAVACAKRVVRDPQGIRAWVAWRNRCQNRDVRQYVQGCGV [I77G], the Tm was 48.1 °C, the “heat capacity change of unfolding” value was 0.79 kcal/mol/K and the “unfolding enthalpy (calorimetric)” value was 84.4 kcal/mol. For the same variant, the “unfolding enthalpy (van 't Hoff)” value was 89.7 kcal/mol.

Same assay, conditions: Homo sapiens; pH 2.66; Thermal; DSC; glycine 0.05 M; reversible: yes; structure 1LZ1; whole UniProt chain shown
For MKALIVLGLVLLSVTVQGKVFERCELARTLKRLGMDGYRGISLANWMCLAKWESGYNTRATNYNAGDRSTDYGIFQANSRYWCNDGKTPGAVNACHLSCSALLQDNIADAVACAKRVVRDPQGIRAWVAWRNRCQNRDVRQYVQGCGV [I77A], the Tm was 59.1 °C, the “heat capacity change of unfolding” value was 1.2 kcal/mol/K and the “unfolding enthalpy (calorimetric)” value was 106 kcal/mol. The “unfolding enthalpy (van 't Hoff)” value was 114 kcal/mol.

Same assay, conditions: Homo sapiens; pH 2.98; Thermal; DSC; glycine 0.05 M; reversible: yes; structure 1LZ1; whole UniProt chain shown
In the case of MKALIVLGLVLLSVTVQGKVFERCELARTLKRLGMDGYRGISLANWMCLAKWESGYNTRATNYNAGDRSTDYGIFQANSRYWCNDGKTPGAVNACHLSCSALLQDNIADAVACAKRVVRDPQGIRAWVAWRNRCQNRDVRQYVQGCGV [I77A], the Tm is reported as 64.5 °C, the “heat capacity change of unfolding” value is reported as 1.63 kcal/mol/K and the “unfolding enthalpy (calorimetric)” value is reported as 115 kcal/mol. For the same variant, the “unfolding enthalpy (van 't Hoff)” value was 120 kcal/mol.

Same assay, conditions: Homo sapiens; pH 2.82; Thermal; DSC; glycine 0.05 M; reversible: yes; structure 1LZ1; whole UniProt chain shown
In the case of MKALIVLGLVLLSVTVQGKVFERCELARTLKRLGMDGYRGISLANWMCLAKWESGYNTRATNYNAGDRSTDYGIFQGNSRYWCNDGKTPGAVNACHLSCSALLQDNIADAVACAKRVVRDPQGIRAWVAWRNRCQNRDVRQYVQGCGV [I77G], the Tm is reported as 54.6 °C, the “heat capacity change of unfolding” value is reported as 0.65 kcal/mol/K and the “unfolding enthalpy (calorimetric)” value is reported as 94.7 kcal/mol. For the same variant, the “unfolding enthalpy (van 't Hoff)” value was 97.6 kcal/mol.

Same assay, conditions: Homo sapiens; pH 3.02; Thermal; DSC; glycine 0.05 M; reversible: yes; structure 1LZ1; whole UniProt chain shown
With MKALIVLGLVLLSVTVQGKVFERCELARTLKRLGMDGYRGISLANWMCLAKWESGYNTRATNYNAGDRSTDYGIFQGNSRYWCNDGKTPGAVNACHLSCSALLQDNIADAVACAKRVVRDPQGIRAWVAWRNRCQNRDVRQYVQGCGV [I77G] the Tm was 59.2 °C, the “heat capacity change of unfolding” value was 0.86 kcal/mol/K and the “unfolding enthalpy (calorimetric)” value was 98.6 kcal/mol. For the same variant, the “unfolding enthalpy (van 't Hoff)” value was 100 kcal/mol.

Same assay, conditions: Homo sapiens; pH 3.16; Thermal; DSC; glycine 0.05 M; reversible: yes; structure 1LZ1; whole UniProt chain shown
In the case of MKALIVLGLVLLSVTVQGKVFERCELARTLKRLGMDGYRGISLANWMCLAKWESGYNTRATNYNAGDRSTDYGIFQGNSRYWCNDGKTPGAVNACHLSCSALLQDNIADAVACAKRVVRDPQGIRAWVAWRNRCQNRDVRQYVQGCGV [I77G], the Tm is reported as 60.4 °C, the “heat capacity change of unfolding” value is reported as 0.81 kcal/mol/K and the “unfolding enthalpy (calorimetric)” value is reported as 100 kcal/mol. For the same variant, the “unfolding enthalpy (van 't Hoff)” value was 102 kcal/mol.
